Changes are numbered by the printed parent chain. Numbers in names are those of the source. Like-named read-outs stand apart in the source and are kept apart here.
Key:
[1] = target: human FXa (American Diagnostica Inc.) (human) (UniProt P00742)
[2] = target: human FXa (American Diagnostica Inc.) (human) (UniProt P00742); remark: listed apart in the source
[3] = target: human FXa (American Diagnostica Inc.) (human) (UniProt P00742); remark: listed apart in the source
[4] = target: human FXa (American Diagnostica Inc.) (human) (UniProt P00742); remark: listed apart in the source
[5] = target: activated blood coagulation factor X (FXa) (Homo sapiens, UniProt P00742); conditions: background statement; cited from earlier work
[6] = target: human FXa (American Diagnostica Inc.) (human) (UniProt P00742); remark: listed apart in the source

Sequence of human FXa (American Diagnostica Inc.) (human) (P00742 41-488 limits assumed): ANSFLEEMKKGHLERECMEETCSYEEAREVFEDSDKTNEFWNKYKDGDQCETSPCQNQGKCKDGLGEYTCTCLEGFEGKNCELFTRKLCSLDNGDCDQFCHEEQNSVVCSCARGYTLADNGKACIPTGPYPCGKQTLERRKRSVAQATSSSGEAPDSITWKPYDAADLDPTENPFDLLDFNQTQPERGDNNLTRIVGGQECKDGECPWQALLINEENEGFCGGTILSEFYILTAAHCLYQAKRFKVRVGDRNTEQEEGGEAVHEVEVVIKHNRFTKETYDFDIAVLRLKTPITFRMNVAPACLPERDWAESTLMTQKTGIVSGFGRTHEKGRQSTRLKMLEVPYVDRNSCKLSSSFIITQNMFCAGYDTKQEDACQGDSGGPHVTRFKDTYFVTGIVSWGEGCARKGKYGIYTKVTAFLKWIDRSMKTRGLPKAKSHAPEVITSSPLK
Sequence of activated blood coagulation factor X (FXa) (P00742 235-488 limits assumed): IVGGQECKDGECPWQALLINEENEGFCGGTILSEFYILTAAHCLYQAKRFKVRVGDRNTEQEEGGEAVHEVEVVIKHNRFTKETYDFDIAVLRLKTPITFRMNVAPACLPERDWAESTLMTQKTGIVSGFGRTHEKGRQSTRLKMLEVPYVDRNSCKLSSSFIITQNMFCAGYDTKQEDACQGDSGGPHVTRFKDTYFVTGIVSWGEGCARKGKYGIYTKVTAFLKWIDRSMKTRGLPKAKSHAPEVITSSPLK
Sequence of activated blood coagulation factor X (FXa) (P00742 41-179 partner limits assumed): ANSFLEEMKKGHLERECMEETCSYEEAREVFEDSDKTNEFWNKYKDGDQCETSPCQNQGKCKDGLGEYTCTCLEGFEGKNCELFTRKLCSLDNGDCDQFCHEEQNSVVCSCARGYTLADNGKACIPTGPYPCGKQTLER

B1: polypeptide Q19R (peptide)
chain: AACNLPIVRGPCRAFIRLWAFDAVKGKCVLFPYGGCQGNGNKFYSEK
For B1, the human FXa-inhibiting activity (substrate S-2222, residual FXa activity) (times higher than polypeptide AN68) [1] was 6.

B2: polypeptide Q19R/Y46E (peptide)
chain: B1 chain with Y44E
Molecule B2 has a human FXa-inhibiting activity (substrate S-2222, residual FXa activity) (times higher than polypeptide AN68) [2] of 10.

B3: polypeptide Q19K/Y46E (peptide)
chain: B1 chain with R17K, Y44E
Molecule B3 has a human FXa-inhibiting activity (substrate S-2222, residual FXa activity) (times higher than polypeptide AN68) [3] of 10.

B4: polypeptide R11E/Y46E (peptide)
chain: B1 chain with R9E, R17Q, Y44E
Work on B4 yielded a human FXa-inhibiting activity (substrate S-2222, residual FXa activity) (times higher than polypeptide AN68) [4] of 3.

B5: urinary trypsin inhibitor (protein, UniProt P02760 206-352, looked up)
Inter-alpha-trypsin inhibitor …: AVLPQEEEGSGGGQLVTEVTKKEDSCQLGYSAGPCMGMTSRYFYNGTSMACETFQYGGCMGNGNNFVTEKECLQTCRTVAACNLPIVRGPCRAFIQLWAFDAVKGKCVLFPYGGCQGNGNKFYSEKECREYCGVPGDGDEELLRFSN
modifications: Inter-alpha-trypsin inhibitor light chain
For B5, the FXa-inhibiting activity [5] is given as “hardly show such an activity”.

B6: HI-30: Bikunins (HI-30), natural protease inhibitor (protein, UniProt P02760 206-352, looked up)
Inter-alpha-trypsin inhibitor …: B5 Inter-alpha-trypsin inhibitor …
modifications: Inter-alpha-trypsin inhibitor light chain
For B6, the FXa-inhibiting activity [5] is given as “hardly show such an activity”.

B7: polypeptide Q19K (peptide)
chain: DDAACNLPIVRGPCRAFIKLWAFDAVKGKCVLFPYGGCQGNGNKFYSEK
In the case of B7, the human FXa-inhibiting activity (substrate S-2222, residual FXa activity) (times higher than polypeptide TN70) [6] is reported as 5.

— patent US5679770A, “Polypeptide, DNA fragment encoding the same, drug composition containing the same and process for producing the same” (Mochida Pharmaceutical Co., Ltd., priority 1991, dated 1997)
